# Results taken from patent US20200140526A1 (UNIVERSITY OF ROCHESTER, published 2020).
# B1: KPF1 human monoclonal antibody (hmAb) (antibody, V domains shown)
# VH: EVQLLESGGGLVQPGGSLRISCAASGSTFGDFAMSWVRQSPGRGLEWVSVTSAGGDRTYYADSVKGRFTISRDNSKNTLYLQMNSLRGEDTAMYYCARLDSSGFHYGRPGRNWGQGTLVTVSS
# VL: DIQMTHSPPSLSASVGDRITITCQASQDISYYLIWYQQKPGKAPKPLIYDASNLEAGVPSRFSASGSGTDFTLTISSLQPEDLATYYCQQYKSLPYTFGQGTKLEIK
# Legend:
# [1] = molecular target: T1, recombinant (r)HA of pH1N1 A/California/04/2009 (Protein Sciences Corp.) (influenza A virus A/California/04/2009 …, UniProt P26140 18-529)
# [2] = molecular target: T1, recombinant (r)HA of pH1N1 …; remark: listed apart in the source
binder,measurement,setting,value
B1,koff,[1],3.42e-05 s⁻¹
same,kon,[1],192000 M⁻¹ s⁻¹
same,Kd,[2],0.178 nM
